Experimental data from US10413588B2, “Probiotic function of human intelectin” (Wisconsin Alumni Research Foundation, priority 2015, dated 2019).
Entries after “also recorded” stand apart in the source; their conditions may differ.

Experiments:
[1] = hIntL-1 carbohydrate binding ELISA-like assay
[2] = hIntL-1 carbohydrate binding ELISA-like assay; remark: listed apart in the source
Experimental: To fabricate carbohydrate-displaying surfaces, 0.5 μg of streptavidin (Prozyme, cat. no. SA20) was adsorbed onto a Maxisorp (Nunc) flat bottom 96 well plate in PBS. Wells were washed with PBS and then coated with 5 μM of carbohydrate-biotin ligand in PBS for 1 hour at 22° C. Wells were blocked with bovine serum albumin (BSA) in ELISA buffer (20 mM HEPES (7.4) 150 mM NaCl, 10 mM CaCl2, and 0.1% tween-20). Samples containing hIntL-1 were prepared by serial dilution into ELISA buffer+0.1% BSA and added to wells for 2 hours at 22° C. Wells were washed four times with ELISA buffer. Bound hIntL-1 was detected using 0.75 μg/mL of a sheep IgG hIntL-1 antibody (R&D Systems, cat. no. AF4254) in ELISA buffer+0.1% BSA for 2 hours at 22° C. Wells were washed with ELISA buffer. A donkey anti-sheep IgG horseradish peroxidase (HRP) conjugate (Jackson ImmunoResearch Laboratories) was added at a 1:5,000 dilution in ELISA buffer+0.1% BSA for 1 hour at 22° C. Wells were washed and hIntL-1 was detected colorimetrically with addition of 1-Step Ultra TMB-ELISA (Pierce). Once sufficient signal was achieved (typically <2 min.), the reaction was quenched with addition of equal volume 2 M H2SO4. Plates were read at 450 nm on an ELx800 plate reader (Bio-Tek). When testing the Ca^2+ dependency of hIntL-1, 1 mM EDTA replaced 10 mM CaCl2 in all steps. Data were analyzed on Prism6 (GraphPad). […]

[3] = CFG mammalian glycan array v5.1; type: binding; settings: hIntL-1 at 50 and 200 μg/ml
[4] = Microbial Glycan Microarray (MGMv2); type: binding, S. pneumonia; settings: Strep-hIntL-1 50 μg/mL; α-Galf containing glycan
Experimental: (§1) Strep-hIntL-1 was used to interrogate the Microbial Glycan Microarray version 2 (MGMv2). Construction of the MGMv2 is previously described. Briefly, bacterial polysaccharide samples were dissolved and diluted to 0.5 mg/mL in printing buffer (150 mM sodium phosphate buffer (8.4)+0.005% Tween-20). Samples were immobilized on NETS-activated glass slides (SlideH, Schott/Nexterion) using a MicroGrid II (Digilab) contact microarray printer equipped with SMP-4B printing pins (Telechem). Six replicates of each bacterial glycan sample were printed. Covalent coupling of glycans to the surface was facilitated by incubation for 1 hour postprint at 100% relative humidity. The remaining reactive NHS-moieties were quenched using a blocking solution (50 mM ethanolamine in 50 mM borate buffer (9.2)). Blocked slides were stored at −20° C. until assays were performed. […] The Strep-Tag® II on bound hIntL-1 was detected using StrepMAB-Classic Chromeo647 (10 μg/mL, IBA GmbH Lifesciences) diluted in binding buffer applied directly to the array surface and allowed to incubate for 1 hour. […] Signal data was calculated as the average of 4 values after removing the high and low values of the 6 replicates. Data were plotted using Excel (Microsoft) as average Relative Fluorescence Units (RFU) versus print identification number. […]

[5] = Microbial Glycan Microarray (MGMv2); type: binding, E. coli; settings: Strep-hIntL-1 50 μg/mL; terminal α-Galf residue
Experimental: as §1

[6] = Microbial Glycan Microarray (MGMv2); type: binding, Salmonella enterica; settings: Strep-hIntL-1 50 μg/mL; terminal α-Galf residue
Experimental: as §1

[7] = Microbial Glycan Microarray (MGMv2); type: binding, Shigella boydii; settings: Strep-hIntL-1 50 μg/mL; terminal α-Galf residue
Experimental: as §1

[8] = test system: adult male fecal microbiome; assay: Flow cytometry binding to adult fecal microbiome; design: species or system human; settings: adult fecal sample, 15 μg/mL Strep-tagged-hIntL-1, 10 mM CaCl2
Experimental: Human fecal samples provide a non-invasive proxy of the intestinal microbiome of a patient. The inventors have isolated the intestinal microbiome from human fecal samples and analyzed it for hIntL-1 binding. The isolated microbiome was fixed using an aqueous solution of 1% formaldehyde. Cells were stained as described elsewhere, using either a solution including calcium ions (100 mM) or one containing the calcium ion chelator EDTA. Microbes were exposed to 20 mM HEPES (pH 7.2), 150 mM NaCl, 10 mM CaCl2, 15 μg/mL Strep-tagged-hIntL-1, 0.1% bovine serum albumin (BSA), 0.05% tween-20, 2 μg/mL StrepMAB Classic conjugated to Oyster 645 (IBA Lifesciences, cat. no.: 2-1555-050). To test for a role for calcium ions, cells were exposed to a solution of 20 mM HEPES (pH 7.2), 150 mM NaCl, 1 mM EDTA, 15 μg/mL Strep-tagged-hIntL-1, 0.1% bovine serum albumin (BSA), 0.05% tween-20, 2 μg/mL StrepMAB Classic Conjugated to Oyster 645 (IBA Lifesciences, cat. no.: 2-1555-050). Cells are analyzed consecutively on a BD LSRII flow cytometer using identical instrument setting. Unstained cells, cells stained in the presence of calcium ions (10 mM), and cells stained in the presence of EDTA were directly compared. […]

B1: hIntL-1: human lectin intelectin-1, accession no. Q8WWA0; recombinant disulfide-linked trimer from HEK 293T cells, used also N-terminally Strep-tagged (Strep-hIntL-1) (protein, listed as Homo sapiens)
chain: MNQLSFLLFLIATTRGWSTDEANTYFKEWTCSSSPSLPRSCKEIKDECPSAFDGLYFLRTENGVIYQTFCDMTSGGGGWTLVASVHENDMRGKCTVGDRWSSQQGSKAVYPEGDGNWANYNTFGSAEAATSDDYKNPGYYDIQAKDLGIWHVPNKSPMQHWRNSSLLRYRTDTGFLQTLGHNLFGIYQKYPVKYGEGKCWTDNGPVIPVVYDFGDAQKTASYYSPYGQREFTAGFVQFRVFNNERAANALCAGMRVTGCNTEHHCIGGGGYFPEASPQQCGDFSGFDWSGYGTHVGYSSSREITEAAVLLFYR
- binding to β-Galf on addition of EDTA ([1]; hIntL-1 conditioned HEK culture media, addition of 25 mM EDTA): completely abolished binding
- Kd ([1]; trimeric hIntL-1, ELISA-like assay, 10 mM CaCl2, read-out: avidity (apparent Kd) for immobilized β-Galf): 85 ± 14 nM
- binding to immobilized α-Neu5Ac [2]: lack of affinity; also recorded: does not bind
- binding to human glycan ligands on CFG mammalian glycan array [3]: none are bound by hIntL-1 with appreciable affinity
- average signal on microbial glycan array [4]: −9.6 RFU
- signal on microbial glycan array [5]: 49 RFU
- signal on microbial glycan array [6]: 66 RFU
- signal on microbial glycan array [7]: 26 RFU
- fraction of bacteria of the human microbiome bound by hIntL-1 [8]: approximately 25%
